Source: the supplement of paper PMC7877785
± gives the uncertainty stated by the source.

Assay: self-splicing fitness, log relative to wild type (ln ratio); higher = more splicing; Tetrahymena group I intron in knt gene, E. coli kanamycin selection, DiMSum; sequences stand for … in CUCUCU…GGAGGGAAAAGUUAUCAGGCAUGCACCUGGUAGCUAGUCUUUAAACCAAUAGAUUGCAUCGGUUUAAAAGGCAAGACCGUCAAAUUGCGGGAAAGGGGUCAACAGCCGUUCAGUACCAAGUCUCAGGGGAAACUUUGAGAUGGCCUUGCAAAGGGUAUGGUAAUAAGCUGACGGACAUGGUCCUAACCACGCAGCCAAGUCCUAAGUCAACAGAUCUUCUGUUGAUAUGGAUGCAGUUCACAGACUAAAUGUCGGUCGGGGAAGAUGUAUUCUUCUCAUAAGAUAUAGUCGGACCUCUCCUUAAUGGGAGCUAGCGGAUGAAGUGAUGCAACACUGGAGCCGCUGGGAACUAAUUUGUAUGCGAAAGUAUAUUGAUUAGUUUUGGAGUACUCGUGGUCG
Method in brief: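 Fitness was computed with DiMSum as the error-weighted combination of replicate fold changes, kanamycin versus none, each normalised to wild type. The library randomised all eight intron nucleotides of the P1ex region, with the intron placed in the knt kanamycin-resistance gene on pET-22b(+) in E. coli BL21(DE3). Six replicate transformations were grown overnight at 37°C or 30°C on LB agar with or without 25 μg/mL kanamycin, plus 100 μg/mL carbenicillin, 50 μM IPTG and 0.2% rhamnose. Pooled colonies were amplicon-sequenced on an Illumina HiSeq 2500.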

Sequence | self-splicing fitness (ln) (30 °C) | self-splicing fitness (ln) (37 °C)
AAUAAGCAAUAUUACGUGAG | -0.815 ± 0.065 | -0.198 ± 0.093
UCUUAGCAAUAUUACGAUGA | -0.467 ± 0.082 | 0.223 ± 0.084
AUCUAGCAAUAUUACGCCGA | -0.962 ± 0.17 | -0.198 ± 0.19
CAUUAGCAAUAUUACGUGAC | -3.18 ± 0.26 | -1.58 ± 0.33
CAUGAGCAAUAUUACGUAUU | -3.86 ± 0.46 | -0.455 ± 0.16
CCGCAGCAAUAUUACGUGAC | -4.7 ± 0.39 | -1.96 ± 0.26
CCUCAGCAAUAUUACGCACG | -2.46 ± 0.17 | -1.06 ± 0.18
GGGCAGCAAUAUUACGUCAA | 0.3 ± 0.08 | 0.285 ± 0.088
UUUGAGCAAUAUUACGGCCU | -3.9 ± 0.4 | 0.167 ± 0.26
GCAAAGCAAUAUUACGUCCU | -0.435 ± 0.1 | 0.035 ± 0.12
AAGUAGCAAUAUUACGCCGG | -3.7 ± 0.3 | -1.59 ± 0.18
CUUAAGCAAUAUUACGCCGU | -3.13 ± 0.34 | -1.88 ± 0.37
ACUCAGCAAUAUUACGCCCG | -1.62 ± 0.14 | -0.599 ± 0.18
UGGUAGCAAUAUUACGGACA | -0.879 ± 0.12 | 0.135 ± 0.16
AGUUAGCAAUAUUACGCAGG | -2.31 ± 0.3 | -0.586 ± 0.29
AUAGAGCAAUAUUACGCCAU | -2.25 ± 0.18 | -1.66 ± 0.27
UUCAAGCAAUAUUACGACGG | -1.5 ± 0.11 | -0.143 ± 0.12
CCGAAGCAAUAUUACGCAAA |  | -2.17 ± 0.38
AAUUAGCAAUAUUACGGGAC |  | -0.571 ± 0.23
GGAUAGCAAUAUUACGGCAA | -0.818 ± 0.19 | -0.178 ± 0.2
AGCAAGCAAUAUUACGCCUG | -3.23 ± 0.27 | -2.54 ± 0.42
UUGGAGCAAUAUUACGUAUU | -4.53 ± 0.39 | -1.7 ± 0.22
UUCAAGCAAUAUUACGGUGA | -0.763 ± 0.093 | 0.168 ± 0.092
AAGUAGCAAUAUUACGAGAG | -3.09 ± 0.22 | -1.05 ± 0.21
CGACAGCAAUAUUACGAGGC | -1.34 ± 0.13 | -2.49 ± 0.31

Sequence | self-splicing fitness (ln) (30 °C) | self-splicing fitness (ln) (37 °C)
UAAGAGCAAUAUUACGUCUG | -1.54 ± 0.093 | -0.00255 ± 0.11
UCCUAGCAAUAUUACGUCUC | -3.82 ± 0.23 | -2.52 ± 0.21
UUCGAGCAAUAUUACGAGCC | -3.05 ± 0.21 | -2.68 ± 0.36
CUACAGCAAUAUUACGUAUU | -4.19 ± 0.2 | -2.94 ± 0.18
UACUAGCAAUAUUACGGCCA | -0.179 ± 0.15 | 0.376 ± 0.16
UCAUAGCAAUAUUACGCGUU | -3.38 ± 0.27 | -3.03 ± 0.27
CAAAAGCAAUAUUACGUCGC | -4.14 ± 0.28 | -2.35 ± 0.25
CGCUAGCAAUAUUACGAUUU | -3.41 ± 0.2 | -1.42 ± 0.12
ACGAAGCAAUAUUACGCAAC | -3.3 ± 0.25 | -2.38 ± 0.39
GUUGAGCAAUAUUACGUAGA |  | -0.549 ± 0.24
AUCCAGCAAUAUUACGGCAC | -0.153 ± 0.085 | -0.31 ± 0.099
GCAGAGCAAUAUUACGAGUU | -4.28 ± 0.16 | -1.82 ± 0.095
CAGAAGCAAUAUUACGACGG | -0.126 ± 0.079 | 0.104 ± 0.1
ACCAAGCAAUAUUACGUAAA | -2.62 ± 0.13 | -1.38 ± 0.16
CACGAGCAAUAUUACGACGU | -3.25 ± 0.17 | -3.34 ± 0.23
GCCAAGCAAUAUUACGACAA | -3.73 ± 0.38 | -3.04 ± 0.26
GAAUAGCAAUAUUACGAGUG | -2.01 ± 0.076 | -2.34 ± 0.13
GAACAGCAAUAUUACGCAAA | -1.37 ± 0.12 | -0.529 ± 0.11
UGAAAGCAAUAUUACGGUAC | -3.27 ± 0.32 | -2.07 ± 0.24
CGCAAGCAAUAUUACGUGUG | -4.31 ± 0.14 | -2.56 ± 0.11
UCUAAGCAAUAUUACGCUUA | -2.29 ± 0.21 | -1.75 ± 0.29
UAAGAGCAAUAUUACGAUUU | -2.44 ± 0.17 | -0.0704 ± 0.12
GUAUAGCAAUAUUACGUUGU | -2.78 ± 0.26 | -1.72 ± 0.23
UGCCAGCAAUAUUACGGCAG | -2.25 ± 0.093 | -1.15 ± 0.1
UUCGAGCAAUAUUACGGCCU | -3.17 ± 0.33 | -2.84 ± 0.35

Sequence | self-splicing fitness (ln) (30 °C) | self-splicing fitness (ln) (37 °C)
GCUAAGCAAUAUUACGAUUA | -1.63 ± 0.22 | -0.39 ± 0.18
UAGAAGCAAUAUUACGAAAA | -2.69 ± 0.2 | -2.02 ± 0.17
GUGGAGCAAUAUUACGCACA | -0.729 ± 0.22 | -0.814 ± 0.33
UACAAGCAAUAUUACGCGCU | -1.39 ± 0.12 | -0.322 ± 0.11
UAUGAGCAAUAUUACGGUCG | -2.52 ± 0.12 | -1.19 ± 0.12
GACCAGCAAUAUUACGGCUA | 0.142 ± 0.055 | 0.0036 ± 0.068
AGGCAGCAAUAUUACGCACC | -0.268 ± 0.1 | -0.0601 ± 0.15
GGUUAGCAAUAUUACGCUGU | -2.1 ± 0.15 | -0.41 ± 0.14
AAGGAGCAAUAUUACGUUCU | -2.47 ± 0.14 | -1.09 ± 0.12
GACCAGCAAUAUUACGGCUG | -3.68 ± 0.18 | -3.41 ± 0.25
UAACAGCAAUAUUACGAGCA | -1.22 ± 0.1 | -0.317 ± 0.1
UACGAGCAAUAUUACGAACU | -3.46 ± 0.48 | -2.4 ± 0.24
AACCAGCAAUAUUACGCUGA | -2.56 ± 0.1 | -1.51 ± 0.094
CGCGAGCAAUAUUACGCUUU | -3.44 ± 0.33 | -0.916 ± 0.24
AGCAAGCAAUAUUACGGGGG | -3.78 ± 0.15 | -2.45 ± 0.19
GCGUAGCAAUAUUACGACAU | -0.276 ± 0.014 | -0.025 ± 0.033
AAAUAGCAAUAUUACGCAUG | -1.27 ± 0.11 | -1.03 ± 0.12
ACAAAGCAAUAUUACGAGAU | -4 ± 0.19 | -1.55 ± 0.097
ACUCAGCAAUAUUACGCUAA | -1.63 ± 0.1 | -0.781 ± 0.1
GAUGAGCAAUAUUACGUGAA | -3.72 ± 0.22 | -1.91 ± 0.2
UUCAAGCAAUAUUACGCAAG | -2.1 ± 0.2 | -0.676 ± 0.17
GCGGAGCAAUAUUACGAGGU | -4.1 ± 0.46 | 
UUCAAGCAAUAUUACGCCAU | -3.57 ± 0.4 | -2.88 ± 0.43
CAAUAGCAAUAUUACGUAAA | -2.68 ± 0.28 | -2.27 ± 0.4
UUGAAGCAAUAUUACGUGGA | -2.33 ± 0.11 | -1.6 ± 0.14

Sequence | self-splicing fitness (ln) (30 °C) | self-splicing fitness (ln) (37 °C)
UGCCAGCAAUAUUACGAGUG | -1.32 ± 0.064 | -0.537 ± 0.079
GGAUAGCAAUAUUACGAGUA | -2.54 ± 0.48 | -1.14 ± 0.16
UCCAAGCAAUAUUACGUCUU | -3.92 ± 0.19 | -1.46 ± 0.14
CACCAGCAAUAUUACGCUUG | -1.06 ± 0.052 | -0.22 ± 0.069
UAUGAGCAAUAUUACGACGU | -3.11 ± 0.21 | -2.62 ± 0.3
UAGUAGCAAUAUUACGGAAG |  | -1.83 ± 0.23
CAUAAGCAAUAUUACGCUCA | -1.25 ± 0.088 | -1.18 ± 0.11
AGAUAGCAAUAUUACGACCU | 0.592 ± 0.11 | 0.469 ± 0.15
AUGGAGCAAUAUUACGUAGC |  | -1.93 ± 0.3
CACUAGCAAUAUUACGGCUU | -3.4 ± 0.24 | -1.91 ± 0.21
UACAAGCAAUAUUACGUUAU | -3.39 ± 0.19 | -1.81 ± 0.1
GGCAAGCAAUAUUACGUUGG | -2.5 ± 0.075 | -2.93 ± 0.12
CUCAAGCAAUAUUACGGCGU | -2.09 ± 0.23 | -2.39 ± 0.46
ACUCAGCAAUAUUACGGGCA | -0.259 ± 0.063 | 0.203 ± 0.084
UCAGAGCAAUAUUACGAAAA |  | -2.13 ± 0.48
UCUGAGCAAUAUUACGGAGA | -2.35 ± 0.17 | -0.963 ± 0.14
CUAGAGCAAUAUUACGAAGG | -1.22 ± 0.12 | -0.403 ± 0.15
GACAAGCAAUAUUACGCCCG | -1.26 ± 0.17 | -0.702 ± 0.37
UGUAAGCAAUAUUACGUGGA | -2.52 ± 0.25 | -1.78 ± 0.22
GAGAAGCAAUAUUACGAGCA | -1.79 ± 0.15 | -0.727 ± 0.14
CCCUAGCAAUAUUACGUGAC | -2.85 ± 0.15 | -2.29 ± 0.34
ACGCAGCAAUAUUACGGGAG | -2.73 ± 0.11 | -1.62 ± 0.11
